What was measured:
[1] = target: 4 domain CD4 (residues 1-388) with a C-terminal twin strep tag (human) (UniProt P01730); assay: SEC
[2] = target: intact human C-C chemokine receptor type 5 (human) (UniProt P51681); assay: SEC
Chain of UniProt P51681 (P51681 whole entry): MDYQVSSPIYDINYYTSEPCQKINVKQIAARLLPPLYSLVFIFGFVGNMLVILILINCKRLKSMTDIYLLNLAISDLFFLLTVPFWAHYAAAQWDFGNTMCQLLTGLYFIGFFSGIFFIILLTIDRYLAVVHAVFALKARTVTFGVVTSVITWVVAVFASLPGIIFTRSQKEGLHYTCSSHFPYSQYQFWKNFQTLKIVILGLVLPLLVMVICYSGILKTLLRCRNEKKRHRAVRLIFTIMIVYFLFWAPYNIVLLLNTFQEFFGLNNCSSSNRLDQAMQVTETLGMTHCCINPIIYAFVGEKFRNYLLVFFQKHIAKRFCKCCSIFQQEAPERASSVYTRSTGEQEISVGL

Row | Substance | stoichiometry N [1] | stoichiometry N [2]
1 | HIV-1 gp120 (residues 1-507) from the isolate 92BR020 with a C-terminal 6xhistidine tag (natural protein) | 1 | 
2 | preformed CD4-gp120 complex (from UniProt P01730 26-388) |  | 1

From article PMC6391877
